Measurements as given in US20250223358A1 (ANTENGENE BIOLOGICS, published 2025).
Numbering of substitutions follows the chain as printed. In names and notes the source's numbering stands. Like-named read-outs stand apart in the source and are kept apart here. Values belong to the binder of their own block, whether it stands above or below them.

How the values were obtained:
human CD3 [1] = biological target: T1, human CD3 (human, UniProt P07766 23-207; P04234 22-171; P09693 23-182); assay: cell-based or functional assay
T1 sequence (P07766 23-207, chain 1 of 3): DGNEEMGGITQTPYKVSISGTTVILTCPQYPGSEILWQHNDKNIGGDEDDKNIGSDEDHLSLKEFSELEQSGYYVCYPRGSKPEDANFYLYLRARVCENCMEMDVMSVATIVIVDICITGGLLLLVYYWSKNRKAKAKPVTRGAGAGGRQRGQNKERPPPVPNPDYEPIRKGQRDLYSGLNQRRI
T1 sequence (P04234 22-171, chain 2 of 3): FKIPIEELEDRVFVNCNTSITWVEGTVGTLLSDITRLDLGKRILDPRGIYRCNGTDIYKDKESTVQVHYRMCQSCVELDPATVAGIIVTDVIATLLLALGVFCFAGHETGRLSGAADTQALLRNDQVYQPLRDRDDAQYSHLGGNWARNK
T1 sequence (P09693 23-182, chain 3 of 3): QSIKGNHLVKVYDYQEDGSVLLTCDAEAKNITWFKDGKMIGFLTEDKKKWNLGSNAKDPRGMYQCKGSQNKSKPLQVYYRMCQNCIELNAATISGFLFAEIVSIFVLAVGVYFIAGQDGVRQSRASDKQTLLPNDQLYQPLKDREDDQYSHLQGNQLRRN

human CD3 [2] = biological target: T1, human CD3; assay: FACS on Jurkat cells
human CD3 [3] = biological target: T1, human CD3; assay: cell-based or functional assay; remark: listed apart in the source
human CD3 [4] = biological target: T1, human CD3; assay: FACS on Jurkat cells; remark: listed apart in the source

B1: hu40E9-L2H3-S91R.L (antibody, V domains shown)
VH: EVQLVQSGAEVKKPGSSVKVSCKASGYTFSSYVIHWVRQAPGQGLEWMGYINPYNDVIKYNEKFKGRVTLTSDKSTSTAYMELSSLRSEDTAVYYCARDSYYSYDGFAYWGQGTLVTVSS
VL: EIVLTQSPDFQSVTPKEKVTITCSASSSVSYMHWYQQKPDQSPKRLIYDTSKLASGVPSRFSGSGSGTDFTLTINSLEAEDAATYYCQQWRSNPPTFGGGTKVEIK
EC50_Fold change (Jurkat-NFAT-luciferase activation, normalized to ch40-C12-C10-E9) (human CD3 [1]): 0.79 fold
Top FACS signal_Fold change (Jurkat-NFAT-luciferase activation, normalized to ch40-C12-C10-E9) (human CD3 [1]): 0.95 fold
EC50 (human CD3 [2]): 0.32 nM
Top FACS signal (human CD3 [2]): 1360

B2: hu40E9-L2H3-Y102S.H (antibody, V domains shown)
VH: B1 VH with Y102S
VL: B1 VL with R91S
EC50_Fold change (Jurkat-NFAT-luciferase activation, normalized to ch40-C12-C10-E9) (human CD3 [1]): 0.87 fold
Top FACS signal_Fold change (Jurkat-NFAT-luciferase activation, normalized to ch40-C12-C10-E9) (human CD3 [1]): 0.96 fold
EC50 (human CD3 [2]): 0.47 nM
Top FACS signal (human CD3 [2]): 1160

B3: hu40E9-L2H10 (antibody, V domains shown)
VH: B1 VH with D105E, G106A
VL: B1 VL with R91S
EC50_Fold change (Jurkat-NFAT-luciferase activation, normalized to ch40-C12-C10-E9) (human CD3 [3]): 12.6 fold
Top signal_Fold change (Jurkat-NFAT-luciferase activation, normalized to ch40-C12-C10-E9) (human CD3 [3]): 1.01 fold
EC50 (human CD3 [4]): 2.55 nM
Top FACS signal (human CD3 [4]): 1680

B6: hu40E9-L2H3-Y54G.H (antibody, V domains shown)
VH: B1 VH with Y54G
VL: B1 VL with R91S
EC50_Fold change (Jurkat-NFAT-luciferase activation, normalized to ch40-C12-C10-E9) (human CD3 [1]): 1.06 fold
Top FACS signal_Fold change (Jurkat-NFAT-luciferase activation, normalized to ch40-C12-C10-E9) (human CD3 [1]): 0.94 fold
EC50 (human CD3 [2]): 0.51 nM
Top FACS signal (human CD3 [2]): 1190

B7: hu40E9-L2H8 (antibody, V domains shown)
VH: B1 VH with Y54G, D99E, Y102S
VL: B1 VL with R91S
EC50_Fold change (Jurkat-NFAT-luciferase activation, normalized to ch40-C12-C10-E9) (human CD3 [3]): 18.4 fold
Top signal_Fold change (Jurkat-NFAT-luciferase activation, normalized to ch40-C12-C10-E9) (human CD3 [3]): 0.69 fold
EC50 (human CD3 [4]): 28 nM
Top FACS signal (human CD3 [4]): 1240

B12: hu40E9-L2H5 (antibody, V domains shown)
VH: B1 VH with Y54G, N55S, D56G
VL: B1 VL with R91S
EC50_Fold change (Jurkat-NFAT-luciferase activation, normalized to ch40-C12-C10-E9) (human CD3 [3]): 1.29 fold
Top signal_Fold change (Jurkat-NFAT-luciferase activation, normalized to ch40-C12-C10-E9) (human CD3 [3]): 0.79 fold
EC50 (human CD3 [4]): 0.36 nM
Top FACS signal (human CD3 [4]): 1920

Second part, the binder after the results:

EC50_Fold change (Jurkat-NFAT-luciferase activation, normalized to ch40-C12-C10-E9) (human CD3 [1]): 1.33 fold
Top FACS signal_Fold change (Jurkat-NFAT-luciferase activation, normalized to ch40-C12-C10-E9) (human CD3 [1]): 0.97 fold
EC50 (human CD3 [2]): 0.75 nM
Top FACS signal (human CD3 [2]): 1250
B4: hu40E9-L3H1 (antibody, V domains shown)
VH: B1 VH with Y27G, L70I, S72A
VL: B1 VL with L46W, F70Y, R91S
notes: humanized 40-C12-C10-E9

EC50_Fold change (Jurkat-NFAT-luciferase activation, normalized to ch40-C12-C10-E9) (human CD3 [3]): 3.41 fold
Top signal_Fold change (Jurkat-NFAT-luciferase activation, normalized to ch40-C12-C10-E9) (human CD3 [3]): 1.15 fold
EC50 (human CD3 [4]): 0.48 nM
Top FACS signal (human CD3 [4]): 1850
B5: hu40E9-L5H7 (antibody, V domains shown)
VH: B1 VH with Y54G, D56G, Y102S
VL: B1 VL with N93S

EC50_Fold change (Jurkat-NFAT-luciferase activation, normalized to ch40-C12-C10-E9) (human CD3 [3]): 21.3 fold
Top signal_Fold change (Jurkat-NFAT-luciferase activation, normalized to ch40-C12-C10-E9) (human CD3 [3]): 0.73 fold
EC50 (human CD3 [4]): 72.9 nM
Top FACS signal (human CD3 [4]): 850
B8: hu40E9-L2H12 (antibody, V domains shown)
VH: B1 VH with S100D
VL: B1 VL with R91S

EC50_Fold change (Jurkat-NFAT-luciferase activation, normalized to ch40-C12-C10-E9) (human CD3 [3]): 23.2 fold
Top signal_Fold change (Jurkat-NFAT-luciferase activation, normalized to ch40-C12-C10-E9) (human CD3 [3]): 1.47 fold
EC50 (human CD3 [4]): 0.66 nM
Top FACS signal (human CD3 [4]): 2490
B9: hu40E9-L5H3 (antibody, V domains shown)
VH: B1 VH
VL: B1 VL with N93S

EC50_Fold change (Jurkat-NFAT-luciferase activation, normalized to ch40-C12-C10-E9) (human CD3 [3]): 1.95 fold
Top signal_Fold change (Jurkat-NFAT-luciferase activation, normalized to ch40-C12-C10-E9) (human CD3 [3]): 1.12 fold
EC50 (human CD3 [4]): 1.52 nM
Top FACS signal (human CD3 [4]): 1900
B10: hu40E9-L4H7 (antibody, V domains shown)
VH: B1 VH with Y54G, D56G, Y102S
VL: B1 VL with N93R

Top signal_Fold change (Jurkat-NFAT-luciferase activation, normalized to ch40-C12-C10-E9) (human CD3 [3]): 0.3 fold
EC50 (human CD3 [4]): 25.4 nM
Top FACS signal (human CD3 [4]): 531
B11: hu40E9-L5H8 (antibody, V domains shown)
VH: B1 VH with Y54G, D99E, Y102S
VL: B1 VL with N93S

EC50_Fold change (Jurkat-NFAT-luciferase activation, normalized to ch40-C12-C10-E9) (human CD3 [3]): 4.34 fold
Top signal_Fold change (Jurkat-NFAT-luciferase activation, normalized to ch40-C12-C10-E9) (human CD3 [3]): 0.95 fold
EC50 (human CD3 [4]): 0.8 nM
Top FACS signal (human CD3 [4]): 1990
B13: hu40E9-L6H3 (antibody, V domains shown)
VH: B1 VH
VL: B1 VL with N93W
